This passage reports Kd results from PMC10083601 (Proceedings of the National Academy of Sciences of the …, 2023).

For the assay, the target named is T1, N-terminally truncated tyrosine phosphorylated STAT1 (residues 136 to 750, N-terminally tagged with GB1) (UniProt P42224 136-750).
T1 sequence: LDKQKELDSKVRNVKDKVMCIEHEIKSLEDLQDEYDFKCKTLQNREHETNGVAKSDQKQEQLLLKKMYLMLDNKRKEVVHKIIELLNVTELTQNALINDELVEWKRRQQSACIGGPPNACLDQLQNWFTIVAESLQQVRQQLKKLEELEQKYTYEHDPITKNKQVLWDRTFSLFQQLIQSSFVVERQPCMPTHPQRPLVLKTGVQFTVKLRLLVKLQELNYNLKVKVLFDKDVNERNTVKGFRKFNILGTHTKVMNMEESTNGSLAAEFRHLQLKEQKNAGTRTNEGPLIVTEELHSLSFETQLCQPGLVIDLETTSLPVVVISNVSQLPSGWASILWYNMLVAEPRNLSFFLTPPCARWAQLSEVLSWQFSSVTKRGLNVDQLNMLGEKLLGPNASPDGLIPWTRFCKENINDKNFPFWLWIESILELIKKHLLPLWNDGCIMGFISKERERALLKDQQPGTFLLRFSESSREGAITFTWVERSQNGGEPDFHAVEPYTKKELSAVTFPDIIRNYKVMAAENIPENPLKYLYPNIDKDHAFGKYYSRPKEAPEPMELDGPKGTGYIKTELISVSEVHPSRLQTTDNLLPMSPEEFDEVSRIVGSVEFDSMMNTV
In words: ITC.

B1: Rabies virus (strain Nishigahara) P3 protein (natural protein)
chain: MSRLHLDDGKLPDLGRMSKAGEGRHQEDFQMDEGEDPSLLFQSYLDNVGVQIVRQMRSGERFLKIWSQTVEEIISYVTVNFPNPSGRSSEDKSTQTTSQEPKKETTSTPSQRKSQSLKSRTMAQTASGPPSLEWSATNEEDDLSVEAEIAHQIAESFSKKYKFPSRSSGIFLYNFEQLKMNLDDIVKEAKNVPGVTRLAHDGSKLPLRCVLGWVALANSKKFQLLVEANKLNKIMQDDLNRYASC
As to B1, the Kd (in general, a measure of binding affinity in units of concentration) was 800 nM.
